Experimental data: paper PMC10413350, “Kinetic and structural characterization of carboxyspermidine dehydrogenase of polyamine biosynthesis” (The Journal of Biological Chemistry, 2023)
Blank lines part the entries; values can stand above or below the molecule they belong to.

How the values were obtained:
[1] = target: Clostridium leptum carboxyspermidine dehydrogenase (Clostridium leptum); test: SEC; HiLoad 16/600 Superdex 200, 25 mM Tris pH 8; 100 ul of 10 mg/ml (BfCASDH) or 5 mg/ml (ClCASDH) injected
BfCASDH = target: T1, BfCASDH (Bacteroides fragilis, UniProt I9VY56); test: intrinsic tryptophan fluorescence quenching (ex […] nm, em […] nm), sigmoidal fit; type: binding
T1 construct: gene HMPREF1080_01141; full length (397 residues modelled per chain), N-terminal hexahistidine tag kept, pET-28b, E. coli BL21 (DE3)
T1 sequence (I9VY56 1-397): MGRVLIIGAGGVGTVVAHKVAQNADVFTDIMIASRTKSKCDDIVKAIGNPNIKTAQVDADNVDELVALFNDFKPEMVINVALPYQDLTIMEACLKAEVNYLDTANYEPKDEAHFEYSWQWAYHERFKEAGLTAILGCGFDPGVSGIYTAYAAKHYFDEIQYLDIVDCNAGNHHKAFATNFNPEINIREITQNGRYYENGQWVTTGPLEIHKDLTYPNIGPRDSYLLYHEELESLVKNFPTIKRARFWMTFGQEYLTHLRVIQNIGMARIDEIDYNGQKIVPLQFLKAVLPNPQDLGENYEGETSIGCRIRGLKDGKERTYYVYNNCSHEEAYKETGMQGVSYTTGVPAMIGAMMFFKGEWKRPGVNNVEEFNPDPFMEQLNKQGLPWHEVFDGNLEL

[2] = target: Bacteroides fragilis carboxyspermidine dehydrogenase (Bacteroides fragilis); test: SEC; HiLoad 16/600 Superdex 200, 25 mM Tris pH 8; 100 ul of 10 mg/ml (BfCASDH) or 5 mg/ml (ClCASDH) injected
purified protein [3] = substrate: NC(=O)C1=CN([C@@H]2O[C@H](COP(=O)(O)OP(=O)(O)OC[C@H]3O[C@@H](n4cnc5c(N)ncnc54)[C@H](OP(=O)(O)O)[C@@H]3O)[C@@H](O)[C@H]2O)C=CC1; test: purified protein; type: biochemical, Bacteroides fragilis; details: apparent, 2.5 mM ASA (subsaturating), 20 mM putrescine, 25 mM potassium phosphate pH 7.5, varied: cofactor
purified protein [4] = substrate: NCCCCN; test: purified protein; type: biochemical, Bacteroides fragilis; details: apparent, from Hill equation (half-saturation), 2.5 mM ASA (subsaturating), 150 uM NADPH, 25 mM potassium phosphate pH 7.5
purified protein [5] = substrate: NCCCN; test: purified protein; type: biochemical, Bacteroides fragilis; details: apparent, from Hill equation (half-saturation), 2.5 mM ASA (subsaturating), 150 uM NADPH, 25 mM potassium phosphate pH 7.5
purified protein [6] = substrate: N[C@@H](CC=O)C(=O)O; test: purified protein; type: biochemical, Bacteroides fragilis; details: apparent, from Hill equation (half-saturation), 20 mM putrescine, 150 uM NADPH, 25 mM potassium phosphate pH 7.5, substrate inhibition above 2.5 mM
purified protein [7] = substrate: NC(=O)C1=CN([C@@H]2O[C@H](COP(=O)(O)OP(=O)(O)OC[C@H]3O[C@@H](n4cnc5c(N)ncnc54)[C@H](OP(=O)(O)O)[C@@H]3O)[C@@H](O)[C@H]2O)C=CC1; test: purified protein; type: biochemical, [Clostridium] leptum; details: apparent, 2.5 mM ASA (subsaturating), 20 mM putrescine, 25 mM Tris pH 7.5, varied: cofactor
purified protein [8] = substrate: NCCCCN; test: purified protein; type: biochemical, [Clostridium] leptum; details: apparent, 2.5 mM ASA (subsaturating), 150 uM NADPH, 25 mM Tris pH 7.5
purified protein [9] = substrate: NCCCN; test: purified protein; type: biochemical, [Clostridium] leptum; details: apparent, 2.5 mM ASA (subsaturating), 150 uM NADPH, 25 mM Tris pH 7.5

- stoichiometry N [1]: 2
Molecule: Clostridium leptum carboxyspermidine dehydrogenase (enzyme)

Molecule: NCCCCN [putrescine]
- Kd (BfCASDH): 11 ± 1 mM

- stoichiometry N [2]: 2
Molecule: Bacteroides fragilis carboxyspermidine dehydrogenase (enzyme)

Molecule: NCCCN [DAP]
- Kd (BfCASDH): 15 ± 2 mM

B1: BfCASDH (Bacteroides fragilis CL05T12C13) (protein)
chain: MGRVLIIGAGGVGTVVAHKVAQNADVFTDIMIASRTKSKCDDIVKAIGNPNIKTAQVDADNVDELVALFNDFKPEMVINVALPYQDLTIMEACLKAEVNYLDTANYEPKDEAHFEYSWQWAYHERFKEAGLTAILGCGFDPGVSGIYTAYAAKHYFDEIQYLDIVDCNAGNHHKAFATNFNPEINIREITQNGRYYENGQWVTTGPLEIHKDLTYPNIGPRDSYLLYHEELESLVKNFPTIKRARFWMTFGQEYLTHLRVIQNIGMARIDEIDYNGQKIVPLQFLKAVLPNPQDLGENYEGETSIGCRIRGLKDGKERTYYVYNNCSHEEAYKETGMQGVSYTTGVPAMIGAMMFFKGEWKRPGVNNVEEFNPDPFMEQLNKQGLPWHEVFDGNLEL
notes: full length (397 residues modelled per chain), N-terminal hexahistidine tag kept, pET-28b, E. coli BL21 (DE3)
- Km (purified protein [3]): 0.057 ± 0.003 mM
- kcat (purified protein [3]): 0.39 ± 0.05 s⁻¹
- kcat/Km (purified protein [3]): 6700 ± 200 M⁻¹ s⁻¹
- K0.5 (purified protein [4]): 4.2 ± 0.3 mM
- kcat (purified protein [4]): 0.41 ± 0.02 s⁻¹
- kcat/Km (purified protein [4]): 96 ± 7 M⁻¹ s⁻¹
- K0.5 (purified protein [5]): 19.7 ± 3.6 mM
- kcat (purified protein [5]): 0.34 ± 0.03 s⁻¹
- kcat/Km (purified protein [5]): 17 ± 3 M⁻¹ s⁻¹
- K0.5 (purified protein [6]): 2.7 ± 0.1 mM
- kcat (purified protein [6]): 0.64 ± 0.02 s⁻¹
- kcat/Km (purified protein [6]): 230 ± 15 M⁻¹ s⁻¹

B2: ClCASDH ([Clostridium] leptum DSM 753) (protein)
chain: MGKALIIGCGGVASVAIHKCCQNSGVFEEICIASRTKSKCDALKEKLSGGKTKITTAQVDANSVDELTALINQVKPDVVLNLALPYQDLTIMEACLAAKVNYVDTANYEPEDTAKFEYSWQWAYRKKFEDAGITALLGSGFDPGVTGVFSAYAQKHYFDEINYIDILDCNAGDHGYPFATNFNPEINIREVSAKGSYWEDGHWVETEPMEIKRVYNFPEIGDKDMYLLHHEELESLALNIKGIKRIRFFMTFGQSYLTHLKCLEDVGMTSIEPIEFQGQQIVPLQFLKAVLPDPSSLGPRTKGKTNIGCIFQGKKDGKDKTYYVYNVCDHQECYKEVGSQAVAYTTGVPAMIGAMMLMTGVWNKPGVHNIEEFDPDPFMDALNKWGLPWKESFSPELVD
notes: full length, N-terminal hexahistidine tag, pET-28b, E. coli BL21 (DE3)
- Km (purified protein [7]): 0.016 ± 0.002 mM
- kcat (purified protein [7]): 0.22 ± 0.02 s⁻¹
- kcat/Km (purified protein [7]): 13800 ± 900 M⁻¹ s⁻¹
- Km (purified protein [8]): 5.0 ± 0.6 mM
- kcat (purified protein [8]): 0.37 ± 0.01 s⁻¹
- kcat/Km (purified protein [8]): 74 ± 10 M⁻¹ s⁻¹
- Km (purified protein [9]): 6.9 ± 1.1 mM
- kcat (purified protein [9]): 0.49 ± 0.03 s⁻¹
- kcat/Km (purified protein [9]): 71 ± 12 M⁻¹ s⁻¹
